{
  "source": "patent US20060177932A1",
  "about": "(published 2006)",
  "molecular_target": "the molecule itself",
  "test": "not described (homodimerisation stated in Example 7)",
  "data": [
    {"protein": "STAT5A 1*7 (other, Expressed from the retrovirus vector GCsam-IRES-EGFP; also called STAT5 1*7; active STAT5 variant) MAGWIQAQQLQGDALRQMQVLYGQHFPIEVRHYLAQWIESQPWDAIDLDNPQDRGQATQLLEGLVQELQKKAEHQVGEDGFLLKIKLGHYATQLQNTYDRCPMELVRCIRHILYNEQRLVREANNCSSPAGVLVDAMSQKHLQINQRFEGLRLITQDTENELKKLQQTQEYFIIQYQESLRIQAQFAQLGQLNPQERMSRETALQQKQVSLETWLQREAQTLQQYRVELAEKHQKTLQLLRKQQTIILDDELIQWKRRQQLAGNGGPPEGSLDVLQSWCEKLAEIIWQNRQQIRRAEHLCQQLPIPGPVEEMLAEVNATITDIISALVTSTFIIEKQPPQVLKTQTKFAATVRLLVGGKLNVHMNPPQVKATIISEQQAKSLLKNENTRNECSGEILNNCCVMEYHQATGTLSAHFRNMSLKRIKRADRRGAESVTEEKFTVLFESQFSVGSNELVFQVKTLSLPVVVIVHGSQDHNATATVLWDNAFAEPGRVPFAVPDKVLWPQLCEALNMKFKAEVQSNRGLTKENLVFLAQKLFNISSNHLEDYNSMSVSWSQFNRENLPGWNYTFWQWFDGVMEVLKKHHKPHWNDGAILGFVNKQQAHDLLINKPDGTFLLRFSDSEIGGITIAWKFDSPDRNLWNLKPFTTRDFSIRSLADRLGDLNYLIYVFPDRPKDEVFAKYYTPVLAKAVDGYVKPQIKQVVPEFVNAFTDAGASATYMDQAPSPVVCPQPHYNMYPPNPDPVLDQDGEFDLDESMDVARHVEELLRRPMDSLDARLSPPAGLFTSARSSLS", "values": [
      {"measurement": "binding result", "value": "binds"}
    ]}
  ]
}
